B1: KLHDC10 (parent)
chain: CPIIRIPNRFLRGHRPPPARSGHR
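Note: lentivirally expressed fusions sorted by FACS into six bins by GFP to DsRed ratio, PSI derived from sequencing read proportions per bin multiplied by bin number.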

Variants of: B1
Test: protein stability index of a GFP-peptide fusion (GPS, HEK-293T) (PSI 1-6); higher = more stable
Conditions: c terminus: a fixed tail appended
Work on CPIIRIPNRFLCGHRPPPARSGHR yielded a protein stability index of 1.28.
Variant CPIIRIPNRFLAGHRPPPARSGHR has a protein stability index of 1.71.
CPIIRIPWRFLRGHRPPPARSGHR gave a protein stability index of 2.59.
For CPIIRIPVRFLRGHRPPPARSGHR, the protein stability index was 2.79.
Work on CPIIRIPLRFLRGHRPPPARSGHR yielded a protein stability index of 2.21.
CPIIRIPMRFLRGHRPPPARSGHR showed a protein stability index of 1.97.
CPIIRIPCRFLRGHRPPPARSGHR gave a protein stability index of 1.94.
Work on CPIIRIPKRFLRGHRPPPARSGHR yielded a protein stability index of 2.42.
For CPIIRIPDRFLRGHRPPPARSGHR, the protein stability index was 2.15.
Variant CPIIRIPHRFLRGHRPPPARSGHR has a protein stability index of 2.69.
With CPIIRIPIRFLRGHRPPPARSGHR the protein stability index was 2.36.
For CPIIRIPSRFLRGHRPPPARSGHR, the protein stability index was 2.44.
CPIIRIPERFLRGHRPPPARSGHR showed a protein stability index of 2.15.
CPIIRIPFRFLRGHRPPPARSGHR gave a protein stability index of 1.81.
Work on CPIIRIPARFLRGHRPPPARSGHR yielded a protein stability index of 1.46.
Variant CPIIRIPYRFLRGHRPPPARSGHR has a protein stability index of 2.07.
With CPIIRIPRRFLRGHRPPPARSGHR the protein stability index was 2.54.
In the case of CPIIRIPTRFLRGHRPPPARSGHR, the protein stability index is reported as 2.52.
For CPIIRIPGRFLRGHRPPPARSGHR, the protein stability index was 1.38.
For CPIIRIPQRFLRGHRPPPARSGHR, the protein stability index was 1.3.
CPIIRIPNRFFRGHRPPPARSGHR showed a protein stability index of 1.84.
In the case of CPIIRIPNRFYRGHRPPPARSGHR, the protein stability index is reported as 2.
CPIIRIPNRFQRGHRPPPARSGHR showed a protein stability index of 1.35.
Work on CPIIRIPNRFCRGHRPPPARSGHR yielded a protein stability index of 1.4.
Work on CPIIRIPNRFGRGHRPPPARSGHR yielded a protein stability index of 2.3.
For CPIIRIPNRFRRGHRPPPARSGHR, the protein stability index was 2.54.
For CPIIRIPNRFMRGHRPPPARSGHR, the protein stability index was 2.89.
CPIIRIPNRFTRGHRPPPARSGHR gave a protein stability index of 1.96.
Variant CPIIRIPNRFHRGHRPPPARSGHR has a protein stability index of 1.69.
For CPIIRIPNRFVRGHRPPPARSGHR, the protein stability index was 2.83.
For CPIIRIPNRFKRGHRPPPARSGHR, the protein stability index was 3.08.
Work on CPIIRIPNRFSRGHRPPPARSGHR yielded a protein stability index of 2.46.
CPIIRIPNRFERGHRPPPARSGHR gave a protein stability index of 1.31.
CPIIRIPNRFWRGHRPPPARSGHR gave a protein stability index of 1.7.
In the case of CPIIRIPNRFDRGHRPPPARSGHR, the protein stability index is reported as 1.42.
In the case of CPIIRIDNRFLRGHRPPPARSGHR, the protein stability index is reported as 2.91.
Variant CPIIRIYNRFLRGHRPPPARSGHR has a protein stability index of 2.11.
Work on CPIIRIGNRFLRGHRPPPARSGHR yielded a protein stability index of 3.71.
For CPIIRIQNRFLRGHRPPPARSGHR, the protein stability index was 3.04.
CPIIRIHNRFLRGHRPPPARSGHR showed a protein stability index of 3.62.
In the case of CPIIRIFNRFLRGHRPPPARSGHR, the protein stability index is reported as 2.28.
CPIIRIANRFLRGHRPPPARSGHR gave a protein stability index of 2.38.
With CPIIRIVNRFLRGHRPPPARSGHR the protein stability index was 1.86.
Work on CPIIRIENRFLRGHRPPPARSGHR yielded a protein stability index of 1.57.
CPIIRIWNRFLRGHRPPPARSGHR showed a protein stability index of 3.51.
Variant CPIIRIKNRFLRGHRPPPARSGHR has a protein stability index of 2.7.
CPIIRIINRFLRGHRPPPARSGHR showed a protein stability index of 2.39.
Work on CPIIRILNRFLRGHRPPPARSGHR yielded a protein stability index of 2.25.
With CPIIRISNRFLRGHRPPPARSGHR the protein stability index was 3.13.
CPIIRICNRFLRGHRPPPARSGHR showed a protein stability index of 1.89.
For CPIIRIMNRFLRGHRPPPARSGHR, the protein stability index was 3.29.
Work on CPIIRIRNRFLRGHRPPPARSGHR yielded a protein stability index of 3.66.
CPIIRITNRFLRGHRPPPARSGHR showed a protein stability index of 2.23.
With CPIIRINNRFLRGHRPPPARSGHR the protein stability index was 2.6.
In the case of CPIIRYPNRFLRGHRPPPARSGHR, the protein stability index is reported as 4.09.
CPIIRSPNRFLRGHRPPPARSGHR gave a protein stability index of 2.04.
CPIIRVPNRFLRGHRPPPARSGHR gave a protein stability index of 2.77.
For CPIIRQPNRFLRGHRPPPARSGHR, the protein stability index was 2.77.
For CPIIRPPNRFLRGHRPPPARSGHR, the protein stability index was 4.35.
CPIIRRPNRFLRGHRPPPARSGHR showed a protein stability index of 3.69.
For CPIIRWPNRFLRGHRPPPARSGHR, the protein stability index was 4.13.
For CPIIRIPNTFLRGHRPPPARSGHR, the protein stability index was 1.46.
Variant CPIIRIPNFFLRGHRPPPARSGHR has a protein stability index of 2.94.
Work on CPIIRIPNGFLRGHRPPPARSGHR yielded a protein stability index of 1.53.
With CPIIRIPNAFLRGHRPPPARSGHR the protein stability index was 1.61.
CPIIRIPNDFLRGHRPPPARSGHR gave a protein stability index of 2.1.
With CPIIRIPNQFLRGHRPPPARSGHR the protein stability index was 2.47.
Variant CPIIRIPNSFLRGHRPPPARSGHR has a protein stability index of 2.12.
Variant CPIIRIPNHFLRGHRPPPARSGHR has a protein stability index of 2.32.
With CPIIRIPNNFLRGHRPPPARSGHR the protein stability index was 2.01.
In the case of CPIIRIPNLFLRGHRPPPARSGHR, the protein stability index is reported as 2.36.
Variant CPIIRIPNMFLRGHRPPPARSGHR has a protein stability index of 1.42.
In the case of CPIIRIPNYFLRGHRPPPARSGHR, the protein stability index is reported as 1.71.
CPIIRIPNCFLRGHRPPPARSGHR gave a protein stability index of 2.48.
In the case of CPIIRIPNPFLRGHRPPPARSGHR, the protein stability index is reported as 3.47.
In the case of CPIIRIPNKFLRGHRPPPARSGHR, the protein stability index is reported as 1.37.
With CPIIRIPNVFLRGHRPPPARSGHR the protein stability index was 2.43.
Variant CPIIRIPNRVLRGHRPPPARSGHR has a protein stability index of 1.4.
Variant CPIIRIPNRTLRGHRPPPARSGHR has a protein stability index of 2.11.
CPIIRIPNRWLRGHRPPPARSGHR showed a protein stability index of 2.38.
CPIIRIPNRLLRGHRPPPARSGHR showed a protein stability index of 2.48.
With CPIIRIPNRELRGHRPPPARSGHR the protein stability index was 1.71.
CPIIRIPNRHLRGHRPPPARSGHR showed a protein stability index of 2.25.
Work on CPIIRIPNRCLRGHRPPPARSGHR yielded a protein stability index of 2.48.
Variant CPIIRIPNRILRGHRPPPARSGHR has a protein stability index of 2.46.
With CPIIRIPNRPLRGHRPPPARSGHR the protein stability index was 1.45.
Work on CPIIRIPNRSLRGHRPPPARSGHR yielded a protein stability index of 2.12.
Work on CPIIRIPNRGLRGHRPPPARSGHR yielded a protein stability index of 1.81.
With CPIIRIPNRRLRGHRPPPARSGHR the protein stability index was 2.65.
CPIIRIPNRALRGHRPPPARSGHR showed a protein stability index of 2.85.
With CPIIRIPNRYLRGHRPPPARSGHR the protein stability index was 1.8.
CPIIRIPNRKLRGHRPPPARSGHR gave a protein stability index of 1.71.
With CPIIRIPNRQLRGHRPPPARSGHR the protein stability index was 2.63.
Work on CPIIRIPNRMLRGHRPPPARSGHR yielded a protein stability index of 1.82.

— the supplement of paper PMC10567573
